Experimental data reported in paper PMC10765524.

Target: PP2A:B55 holoenzyme (PP2Aa, B55, PP2Ac) (UniProt P30153)
Sequence (P30153 9-589, chain 1 of 3): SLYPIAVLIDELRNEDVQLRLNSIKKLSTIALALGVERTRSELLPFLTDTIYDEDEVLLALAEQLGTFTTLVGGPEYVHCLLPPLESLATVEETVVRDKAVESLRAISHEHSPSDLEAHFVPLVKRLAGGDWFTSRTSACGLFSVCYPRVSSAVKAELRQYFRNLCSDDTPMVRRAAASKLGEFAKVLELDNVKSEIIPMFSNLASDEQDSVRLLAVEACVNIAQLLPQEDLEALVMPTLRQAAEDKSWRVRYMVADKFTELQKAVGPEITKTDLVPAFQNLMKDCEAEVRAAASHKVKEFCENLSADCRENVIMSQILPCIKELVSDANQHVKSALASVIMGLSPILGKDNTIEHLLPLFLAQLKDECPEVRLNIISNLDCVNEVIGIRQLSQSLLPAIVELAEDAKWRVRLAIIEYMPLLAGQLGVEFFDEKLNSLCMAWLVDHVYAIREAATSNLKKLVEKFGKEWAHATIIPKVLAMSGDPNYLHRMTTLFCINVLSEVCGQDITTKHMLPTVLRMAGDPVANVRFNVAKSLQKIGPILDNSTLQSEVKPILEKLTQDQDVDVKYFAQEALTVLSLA
Sequence (P63151 whole entry, chain 2 of 3, further chain): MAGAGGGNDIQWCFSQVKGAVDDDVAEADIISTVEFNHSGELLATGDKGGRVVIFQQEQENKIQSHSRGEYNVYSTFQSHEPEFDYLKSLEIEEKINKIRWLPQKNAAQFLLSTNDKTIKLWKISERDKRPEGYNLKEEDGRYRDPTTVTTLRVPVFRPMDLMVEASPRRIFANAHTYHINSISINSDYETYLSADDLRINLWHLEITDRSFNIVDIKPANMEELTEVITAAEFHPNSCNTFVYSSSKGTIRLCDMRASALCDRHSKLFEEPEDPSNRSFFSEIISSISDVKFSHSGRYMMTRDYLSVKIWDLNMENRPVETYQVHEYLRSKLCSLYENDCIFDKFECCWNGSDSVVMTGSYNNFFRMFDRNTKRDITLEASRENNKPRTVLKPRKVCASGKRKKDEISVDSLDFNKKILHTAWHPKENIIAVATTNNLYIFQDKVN
Sequence (P67775 whole entry, chain 3 of 3, further chain): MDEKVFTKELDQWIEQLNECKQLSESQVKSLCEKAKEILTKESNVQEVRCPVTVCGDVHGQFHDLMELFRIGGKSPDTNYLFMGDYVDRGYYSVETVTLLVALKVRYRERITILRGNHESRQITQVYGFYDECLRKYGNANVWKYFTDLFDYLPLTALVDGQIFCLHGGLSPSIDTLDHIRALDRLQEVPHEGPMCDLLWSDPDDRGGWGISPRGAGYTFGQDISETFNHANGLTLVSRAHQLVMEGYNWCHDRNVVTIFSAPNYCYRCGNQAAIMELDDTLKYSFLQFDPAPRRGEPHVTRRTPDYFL

Row | inhibition of PP2A:B55 phosphatase activity (DiFMUP), against wild type [fold] | Substance
1 | 2 | FAM122AID E104A/S120C (domain or fragment)
2 | 6 | FAM122AID V107G (domain or fragment)
3 | 11 | FAM122AID R105L (domain or fragment)
